Among the data in article PMC7375243, “Structural Basis of Human Helicase DDX21 in RNA Binding, Unwinding, and Antiviral Signal Activation” (Advanced Science, 2020) are binding result and binding signal values, retold here.

Where a chain is given by its changes, count along the chain named.

Holding throughout (conditions): protein: recombinant; tags: N-terminal His-SUMO, removed by ULP1; label: FAM; single strand
In series [1] the target is T1, DDX21 helicase core (D1D2, DDX21-delNC) (human, UniProt Q9NR30 188-563).
T1 sequence: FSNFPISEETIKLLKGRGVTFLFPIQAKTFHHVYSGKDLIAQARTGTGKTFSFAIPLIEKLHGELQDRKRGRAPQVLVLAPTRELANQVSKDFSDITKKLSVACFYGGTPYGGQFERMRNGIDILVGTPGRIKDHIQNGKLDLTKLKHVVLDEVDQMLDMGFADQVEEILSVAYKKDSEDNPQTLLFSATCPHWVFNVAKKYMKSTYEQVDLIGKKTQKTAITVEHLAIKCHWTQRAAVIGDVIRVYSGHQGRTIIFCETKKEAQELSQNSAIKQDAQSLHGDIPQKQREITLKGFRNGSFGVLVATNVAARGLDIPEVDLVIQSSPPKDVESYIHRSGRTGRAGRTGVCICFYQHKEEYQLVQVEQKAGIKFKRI
The series is described as follows: MST; 2 mM AMPPNP, 2 mM MgCl2; value only in figure; MST: 50 mM Tris pH 7.5, 50 mM KCl, 2 mM MgCl2, 1 mM TCEP, 0.01% NP-40, 0.05 mg/mL BSA, 2 mM AMPPNP, 50 nM FAM-RNA; temperature not given; crosslinking buffer not in material.

The next series addresses T2, DDX21 core T315A (human, UniProt Q9NR30 188-563, T315A).
T2 sequence: T1 sequence with T128A
The series is described as follows: UV crosslinking; negligibly affected; MST: 50 mM Tris pH 7.5, 50 mM KCl, 2 mM MgCl2, 1 mM TCEP, 0.01% NP-40, 0.05 mg/mL BSA, 2 mM AMPPNP, 50 nM FAM-RNA; temperature not given; crosslinking buffer not in material.

The next series has as its target T3, DDX21 core T494A (human, UniProt Q9NR30 188-563, T494A).
T3 sequence: T1 sequence with T307A
Described as above.

Series [2] concerns the target T4, DDX21 core D339H/E340G (DEV mutant) (human, UniProt Q9NR30 188-563, D339H;E340G).
T4 sequence: T1 sequence with D152H, E153G
Description: UV crosslinking; highest activity of all; MST: 50 mM Tris pH 7.5, 50 mM KCl, 2 mM MgCl2, 1 mM TCEP, 0.01% NP-40, 0.05 mg/mL BSA, 2 mM AMPPNP, 50 nM FAM-RNA; temperature not given; crosslinking buffer not in material.

The target of the next series is T5, DDX21 core del-loop (human, UniProt Q9NR30 188-563, del401-405).
T5 sequence: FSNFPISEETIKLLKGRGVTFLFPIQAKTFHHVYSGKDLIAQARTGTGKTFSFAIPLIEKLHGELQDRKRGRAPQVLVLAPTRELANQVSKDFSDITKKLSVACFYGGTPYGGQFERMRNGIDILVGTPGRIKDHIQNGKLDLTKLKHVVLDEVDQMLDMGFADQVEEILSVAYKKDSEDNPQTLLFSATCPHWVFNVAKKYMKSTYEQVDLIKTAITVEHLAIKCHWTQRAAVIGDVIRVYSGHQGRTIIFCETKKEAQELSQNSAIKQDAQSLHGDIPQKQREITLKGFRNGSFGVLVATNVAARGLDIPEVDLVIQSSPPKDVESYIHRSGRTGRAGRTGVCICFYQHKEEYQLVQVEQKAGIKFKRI
The series is described as follows: UV crosslinking; retains more than half; MST: 50 mM Tris pH 7.5, 50 mM KCl, 2 mM MgCl2, 1 mM TCEP, 0.01% NP-40, 0.05 mg/mL BSA, 2 mM AMPPNP, 50 nM FAM-RNA; temperature not given; crosslinking buffer not in material.

Regarding UUUUUUUUUUUUUUU (ssRNA) [FAM-U15], the binding result (in series [1]; in the series with DDX21 core T315A; with DDX21 core T494A; in series [2]) was “binds” in each case. Moreover, the binding signal with DDX21 core del-loop is > 50 % of WT.
